Data from the supplement of paper PMC9170038.

Tested on: MS2 coat protein
Assay: apparent KD of MS2 coat protein; higher = weaker reporter binding
Conditions: Eterna round: R107
Method in brief: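 Binding of SNAP-549-labelled MS2 coat protein was measured on designed RNA switches transcribed on-chip from Illumina sequencing clusters. The protein rose in twofold steps from 0.7 or 1.5 nM to 3 µM, with 0.8–1.5 h per step early on and 10–20 min per step later, in 100 mM Tris-HCl pH 7.5, 80 mM KCl, 4 mM MgCl2, without or with constant ligand. Each design's apparent KD is the median of fits to its normalised cluster binding curves.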

[1] = input ligand: theophylline 20 uM
[2] = input ligand: theophylline 2 mM
[3] = input ligand: tryptophan 2.4 mM

| Sequence | apparent KD of MS2 coat protein (input ligand: arginine 13.2 mM) [nM] | apparent KD of MS2 coat protein [1] [nM] | apparent KD of MS2 coat protein [2] [nM] | apparent KD of MS2 coat protein (input ligand: none) [nM] | apparent KD of MS2 coat protein [3] [nM] |
| --- | --- | --- | --- | --- | --- |
| GGAAUAAUGGCGGCCGCCACUAACUCAUAUACAUCAUGUACAUGAGGAUCACCCAUGUAGGUGUAUAGGACCGGGCCAUAAUUCC [39MS split4] | 20.1 | 27.3 | 25.1 |  |  |
| GGACUAACCAGAAGGAGCGACACGCAGAAACUGCAAAUUCCUCUGCACGAGGAUCACCCGUGUCAGGUAGGUCGCUGGUUAGUCG | 29.9 | 35.5 | 36.6 | 27.4 | 26.9 |
| GGACUAACCAGAAGGAGCGGCGCGCAGAAACUGCUAAUUCCUCCGCACGAGGAUCACCCGUGUCAGGUAGGUCGCUGGUUAGUCG [ArgBX 28] | 10.3 | 12.4 | 13.4 |  | 11 |
| GGAGUAGGAAACUAUUCCAAUCCUCGUGAACGAGGACCGGUACGGCCGCCACUCGAUAAAUAAAUACAUGAGGAUCACCCAUGUA [Ex Tryptophan A 22] | 20 | 28.9 | 34.1 |  |  |
| GGAUAGGACACGGCCGCCACUACCUAGGAUACUAGCAACAUUUGGGUACGUGAGGAUCACCCACGUAGGACCGGGUGUCCUAUCG | 15.2 | 19.1 | 14.5 |  | 20.4 |
| GGAUAGGACACGGCCGCCACUAGCUAGGAUACUAGCAACAUUUCCUCAUAUGAGGAUCACCCAUAUAGGACCGGGUGUCCUAUCG | 215 | 389 | 471 | 376 | 1140 |
| GGAUAGGACACGGCCGCCACUGCCUAGGAUACUAGCAACAUUUGGGUACAAGAGGAUCACCCUUGUAGGACCGGGUGUCCUAUCG | 27.1 | 38.6 | 29.3 | 25 | 26 |
| GGAUAGGACAGAAGGAGCGUGAGAUGCAUACCUUCAUUCCUCACAUGAGGAUCACCCAUGUCACAGGUAGGUCGCUGUCCUAUCG [#20 Exclusion - Arginine B] | 64.8 | 108 | 96.5 | 93.5 | 90.7 |
| GGCGACAUGAGGAUCACCCAUGUGACACCUCGAGGACCGGUACGGCCGCCACUCGUAACCUGCACUAUAGCUACCACGAUUAGCC [theeternabot_sameState_MS2_Trp_A_44] | 84.3 | 238 | 233 |  |  |
| GGCGUCGGGCGAAGGAGCGUGAAGACAUGAGGAUCACCCAUGUAGAGGCCCGAACAGGGUUCGCAGGUAGGUCGCGCGCGGUGCC [#1 Same State - Arginine B Attempt #6 (HarryS)] | 11.5 | 24.7 | 21.4 | 13.6 | 15.6 |
| GGGAGGUAGGCGGCCGCCACUGAUUUUCAUAUAUAUAUAACAUGAGGAUCACCCAUGUAGAUAUGCAGGACCGGGCCUGUUUUUU [aaaK] | 18.8 | 30.5 | 26.3 |  |  |
| GGGCAAGAGGGAAGGAGCGUCAGCUGAGUCACAUGAGGAUCACCCAUGUCGCACAUAGUGUGACAGGUAGGUCGCCCUCUACCCU [Esceinan] | 57.8 | 167 | 107 | 124 | 89.3 |
| GGGCGCGUGGACCGGCGUGCUCCGCUCCGUCGAGGACCGGUACGGCCGCCACUCGACAUGAGGAUCACCCAUGUGCGAGCUCGCG [#1 Exclusion - Tryptophan A Attempt #15 (HarryS)] | 16.2 | 39.8 | 32.1 | 19.3 | 191 |
| GGGUACAUCGCGGCCGCCACUCAUGUAAAUACAUGAGGAUCACCCAUGUCGAUGGAGACAUCGGAGAGGACCGGGCGAUGUACCG | 224 | 352 | 540 | 398 | 264 |
| GGUACAUGAGGAUCACCCAUGUAUGCGAGCCGAGGACCGGUACGGCCGCCACUCGCUUAACAUGAGGAUCACCCAUGUUUCUCGG [SSTA DOUBLE!!! :-D #15] | 90.9 | 157 | 120 | 94.9 | 108 |
| GGUACAUGAGGAUCACCCAUGUGUCAUGAUACCAGACAUGAAAAUGUCCCUUGGCAGCAUGCCAGACGGCCGCGUUUAGCGGCCG [Oresin] | 18.6 | 19.7 | 19.6 | 12.8 | 16.3 |
| GGUCUCUGGAGCGAUACCAGCUUAAAUGUACUGGCCAGGUACAUGAGGAUCACCCAUGUAAGCCCUUGGCAGCGCUCCAGAGACC [#1 Exclusion - Theophylline B Attempt #13 (HarryS)] | 12.3 | 13.8 | 39.2 | 13.9 | 13.5 |
| GGUGAUCCGUAUCACCGGAUCAUCGGUGAUACCAGCAUCGAAAGAUGCCCUUGGCAGCACCAACAUGAGGAUCACCCAUGUAAUA [(M)'-(T)'-(M)''-(T1)-(T2)-(M1)-(M2)_Design6] | 70.3 | 67 |  |  | 98.4 |
